± gives the uncertainty stated by the source.
assay: amyloid nucleation score (Sup35N fusion, yeast selection) (log enrichment); library NNK2; higher = more nucleation; inactive = no reads after selection
Outline: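 The nucleation score is the DiMSum log enrichment of output over input reads, centred on the mode score of non-aggregating sequences. Only sequences with 100 or more input reads were scored, using Illumina sequencing of input and output plasmid inserts. Psi-negative yeast expressing Sup35N fused to peptides of 20 random codons were induced 24 hours with 100 μM copper sulfate and grown 7 days at 30°C on medium lacking adenine and uracil.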

In order of falling amyloid nucleation score:
1. FTIYCSYIFCQCWDTSEKSK  8.593 ± 0.044
2. GTQRAYGVKGKLETDLIRLK  8.554 ± 0.059
3. SCNGCSSMRDIFIFHGLLHN  7.165 ± 0.033
4. ELHLFHATPRY  6.61 ± 0.067
5. ITFMVLM  6.6 ± 0.074
6. EDCVMISTCNFLFTINVLEA  6.38 ± 0.065
7. SDRGLRACQCVCWDFDSISM  6.212 ± 0.046
8. FITNFGACRYCCRWHM  6.184 ± 0.042
9. ATMVSPTSQLAPNMYNASLT  5.97 ± 0.085
10. WYCRVSMRNLYIFGSIRSAY  5.34 ± 0.086
11. YNKRVSWKYWMWHEYAMRGW  5.21 ± 0.057
12. QYLSALSSAISGGDVYMMSK  5.15 ± 0.065
13. PSRYAVLLCFGGVDTNVGIT  4.967 ± 0.049
14. RFSGASNLVESPIKWIVGAH  4.96 ± 0.06
15. SDCLGKSVVVYNLLGFGR  4.791 ± 0.045
16. YSKAAIFMESHFLASGNHKA  4.67 ± 0.1
17. QLICTMNFVAEYNWSALRRN  4.55 ± 0.12
18. FIDPGHFTLDLGCSPPESEV  4.5 ± 0.085
19. VFAYYIDRARSSRVPCTVAN  4.28 ± 0.12
20. MFVQCICRGIHIIVPGSVRS  3.88 ± 0.13
21. TYHYLMYLLVRRNMGDVNGA  3.49 ± 0.097
22. QDEHIMVIVKLRRYTFNWEL  2.86 ± 0.11
23. INDSEVMRICLPVGFGHLEG  2.45 ± 0.077
24. KGNAVVSWDRS  2.36 ± 0.1
25. SDPLSFGFGQMWIGVHNEFY  2.2 ± 0.16
26. LYSDMRASDRYWTLSFDCKI  1.88 ± 0.48
27. TLWHARTVKRDKWSSYGVGR  1.83 ± 0.12
28. WGENARAESRTEEMLL  1.81 ± 0.22
29. FFSVSNDHPSFFPANVGEVH  1.74 ± 0.25
30. RISCSMVKRSYFRHVLVCEI  1.74 ± 0.26
31. SCRRWHLFLGWCIDVVESIY  1.56 ± 0.13
32. TLHLWGSK  1.38 ± 0.42
33. NVAMSCPRGRVPR  1.35 ± 0.38
34. NHSVTWLPD  1.27 ± 0.41
35. SFCVLIRYNRFGAIS  1.24 ± 0.22
36. STAWKCEVYRRV  1.14 ± 0.33
37. GDFLWNLWVYHNY  1.05 ± 0.17
38. GRFKITVTRYANVYSMLRVI  1.02 ± 0.49
39. VNVCWLKSATPNSCVDLVNI  0.946 ± 0.6
40. SGGVR  0.94 ± 0.32
41. FINCSHQCHSIGIRVLLNCR  0.915 ± 0.19
42. GLPPVC  0.851 ± 0.22
43. AFLRLRWNSNPVISGTRNRR  0.777 ± 0.48
44. RISVYRPVGVLLF  0.755 ± 0.4
45. DDCVPQWEYK  0.695 ± 0.42
46. GFICPFVQLCVFRSRHRFEV  0.676 ± 0.8
47. AFEFIPSKPRW  0.667 ± 0.66
48. SLYLSWYDIFLMYGCWNVVR  0.638 ± 0.37
49. GSRYN  0.634 ± 0.54
50. RSKLFVISNGRRMHVVLSST  0.605 ± 0.51
51. SLGIQRARNAMSNTPFALGS  0.596 ± 0.36
52. YHTRIYDL  0.576 ± 0.45
53. RNILPLARDSVVFNDCYDSG  0.545 ± 0.33
54. QPSVL  0.524 ± 0.81
55. SGNAGLFNRARGSVVTAVLV  0.463 ± 0.64
56. SLSRGLC  0.404 ± 0.45
57. YVIQMYLSEATGCYVFTYFF  0.368 ± 0.33
58. LYAECFYATILNGDECRWRT  0.344 ± 0.31
59. FWFKV  0.335 ± 0.42
60. VWALKGMIYN  0.33 ± 0.17
61. KDYPLAGSLVTKL  0.317 ± 0.62
62. KFHGSVNGMFPAREITRDLR  0.316 ± 0.23
63. SFTCALRLGVRGHWLIVTSF  0.276 ± 1
64. SRGISKVTWP  0.276 ± 0.28
65. AVFSSVLGYNA  0.257 ± 0.56
66. SYGFQVLDAKDVLMLAFVWA  0.255 ± 1.1
67. RYSNKSDDYRGTSYLMYHVM  0.232 ± 0.45
68. HVMCR  0.225 ± 0.19
69. FDWQRLMG  0.196 ± 0.64
70. YSLNWVQWEWELVCKWQGSL  0.143 ± 0.35
71. CLYPLSVDVVSFHYCTTCCE  0.141 ± 0.33
72. RCMFDIYFVLVTCEQWCCLV  0.099 ± 0.49
73. IHDWKQSYVNVC  0.084 ± 0.45
74. FMNANRRVKKGQRVKRWTYS  0.045 ± 0.79
75. GSRDHKPWTNRMWFTYTVIR  0.028 ± 0.17
76. VETYT  0.022 ± 0.65
77. VMFEFNLAGSDSSDKAAMVT  0.014 ± 0.49
78. RVPIWRANIGKGSSIMPIFC  0.009 ± 0.76
79. IRRFRGLTSRSTRCSKGSKG  -0.072 ± 0.45
80. GINWSAVYR  -0.083 ± 0.24
81. RHNRC  -0.117 ± 0.79
82. NFADWTCFDIQVR  -0.186 ± 0.32
83. SDPSNLSMMCTQQRLAGSD  -0.189 ± 0.49
84. DSSSVGGVLPVCVNSKSMED  -0.236 ± 0.41
85. FSGLTDHFRSYLMYSAWTNI  -0.238 ± 0.48
86. LGVNYAMNVTSGSQTFMRDG  -0.243 ± 1
87. RTEEQ  -0.254 ± 0.54
88. PTGYILESTYFTGQGKCAGL  -0.255 ± 1.1
89. TRDAVGVLTLSSTLTTCSTC  -0.26 ± 0.35
90. MFYLCLRVVFRLKSWDFCDK  -0.271 ± 0.34
91. LISEVALGFAPMKIVRGFLD  -0.284 ± 0.56
92. ACLITNRV  -0.288 ± 0.54
93. YEGFM  -0.297 ± 0.56
94. AAFRSTFDCTTVVLRSPSVS  -0.345 ± 0.33
95. RFDSDNTFDPGRWYSCSQDA  -0.346 ± 0.53
96. GNSLNSYLSE  -0.346 ± 0.42
97. SRMLYVQIWREYVNSWKTSS  -0.356 ± 0.38
98. LLLITVVIRCRSWVWGWLIS  -0.358 ± 0.74
99. IMYCCVMLIFTMSVVEWGFT  -0.383 ± 1
100. CLVFTRVWYCAIYRTSFKET  -0.474 ± 0.38
101. HDMEYKVMDRIARM  -0.501 ± 1.1
102. SDLFVNICCRPNRMGV  -0.521 ± 0.48
103. HKGVLEINSRVETLRSSAVN  -0.545 ± 0.63
104. APRRVSERFGSIVWVRRNS  -0.547 ± 0.55
105. WLTEVY  -0.587 ± 0.79
106. SVYRFFAKSKMKCWGLHNGG  -0.63 ± 0.55
107. FQCLVFLLIGRFGVRHWT  -0.675 ± 1.1
108. AFMSYTSSSRYPVCYLSKFH  -0.74 ± 1.1
109. CDAGFEIVLSLIN  -0.828 ± 0.74
110. DDFNERSSLHVVYDRF  -0.901 ± 1
111. GAFIMWYTGWVPHVDSGCCL  -1.04 ± 1.1
112. CLWVRGSCC  -1.04 ± 0.55
113. MYKGLISLNCVTSGTRSG  -1.07 ± 1.1
114. SKNVFKMGLDTSH  -1.22 ± 0.32
115. LSMELNVYVERWWFSKLDRG  -1.26 ± 0.49
116. GRYVNCGRSLRICSINLTKI  -1.31 ± 0.55
117. YYSMGSTCGILDQDSLNVDQ  -1.34 ± 0.39
118. FRSGGPLFFHSMGTGFVFVH  -1.5 ± 1.1
119. IPSRFPNFNR  -1.62 ± 0.55

For YKAAIGFCINQCLRHHVTKR, the amyloid nucleation score was “inactive”.
In the case of VYTQYYNTKSKISYCFLRLI, the amyloid nucleation score is reported as “inactive”.
In the case of VVRMRENKRNIL, the amyloid nucleation score is reported as “inactive”.
In the case of YYVTNSGSWLDACHGLYKTG, the amyloid nucleation score is reported as “inactive”.
In the case of GDVYCNGLGISFVYFRGSRS, the amyloid nucleation score is reported as “inactive”.
With YDLDEGYSLMFVPQEQICAE the amyloid nucleation score was “inactive”.
In the case of CNLWSDLGWYYQAMWKIRRD, the amyloid nucleation score is reported as “inactive”.
In the case of GCFSCHIWFTVRFYWTLYVP, the amyloid nucleation score is reported as “inactive”.
In the case of SRLISTHTAT, the amyloid nucleation score is reported as “inactive”.
